Results as given in the nanobody polyreactivity screen of Harvey et al. (2022).

Test: yeast display, Sf9 membrane polyspecificity reagent, FACS + sequencing; frameworks hold sequencing errors
Procedure, shortened: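 A nanobody's polyreactivity label depends on the gate it was sorted from. Yeast display cells were stained with 10% biotinylated, detergent-solubilized Sf9 membrane reagent for 1 hour at 4 °C, enriched on streptavidin microbeads and sorted by FACS. The low and high (top ~1%) gates were set on anti-HA fluorescence for expression and streptavidin fluorescence for reagent binding.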

QVQLVESGGGLVQAGGSLRLSCAASGSTFTYNARGWYRQAPGKERELVAVIRPGGTTNYADSVKGRFTISRDNAKNTVYLQMNSLKPEDTAVYYCAKFFGNYSIYDYWGQGTQVTVSS
polyreactivity (PSR sort gate): low polyreactivity

QVQLVESGGGLVQAGGSLRLSCAASGSTFTYNTMGWYRQAPGKERELVAAINTTGNTYADSVKGRFTISRDNAKNTVYLQMNSLKPEDTAVYYCNTDYVPRRHDMDYWGQGTQVTVSS
polyreactivity (PSR sort gate): low polyreactivity

QVQLVESGGGLVQAGGSLRLSCAASGSTFTYNTMGWYRQAPGKERELVAAISSGGSTYYADSVKGRFTISRDNAKNTVYLQMNSLKPEDTAVYYCAATAQKDSRYGSRYYYWGQGTQVTVSS
polyreactivity (PSR sort gate): high polyreactivity

QVQLVESGGGLVQAGGSLRLSCAASGSTFTYYAMGWYRQAPGKERELVAAIRNGGSTNYADSVKGRFTISRDNAKNTVYFQMNSLKPEDTAVSYCAADQYYYTQPCDMDYWGQGTQVTVSS
polyreactivity (PSR sort gate): high polyreactivity

QVQLVESGGGLVQAGGSLRLSCAASGSTFTYYAMGWYRQAPGKERELVAAISSTDSTYYADSVKGRFTISRDNAKNTVYVQMNSLKPEDTAVYYCAAVRFSHSRETRRGYWGQGTQVTVSS
polyreactivity (PSR sort gate): high polyreactivity

QVQLVESGGGLVQAGGSLRLSCAASGSTFTYYAMGWYRQAPGKERELVAAITFRGDSTYYADSVKGRFTISRDNAKNTVYLQMNSLKPEDTAVYYCNADSISSTYYDEDYWGQGTQVTVSS
polyreactivity (PSR sort gate): low polyreactivity

QVQLVESGGGLVQAGGSLRLSCAASGSTFTYYAMGWYRQAPGKERELVADISRDGGSTYYADSVKGRFTISRDNAKNTVNLQMNSLKPEDTAVYYCATDMVYKYDYWGQGTQVTVSS
polyreactivity (PSR sort gate): low polyreactivity

QVQLVESGGGLVQAGGSLRLSCAASGSTFTYYAMGWYRQAPGKERELVASINWSGGSTRYADSVKGRFTISRDNAKNTVYLQMNSLKPEDTAVYYCAARKSPRSQVRGRSYYWGQGTQVTVSS
polyreactivity (PSR sort gate): high polyreactivity

QVQLVESGGGLVQAGGSLRLSCAASGSTFTYYSMGWYRQAPGKERELVDAITGRGGRTYYADSVKGRFTISRDNAKNTVYLQMNSLKPEDTAVYYCARYQSSDTYWTKYDYWGQGTQVTVSS
polyreactivity (PSR sort gate): high polyreactivity

QVQLVESGGGLVQAGGSLRLSCAASGSTFVDYAMGWYRQAPGKERELVAAISSSGSTNYADSVKGRFTISRDNAKNTVYLQMNSLKPEDTAVYYCNADGNPDFYYSFYDEYDYWGQGTQVTVSS
polyreactivity (PSR sort gate): low polyreactivity

QVQLVESGGGLVQAGGSLRLSCAASGSTFVGNAMGWYRQAPGKERELVAAITWSGGTYYADSVKGRFTISRDNAKNTVYLQMNSLKPEDTAVYYCNAEWRVYPDLYDYWGQGTQVTVSS
polyreactivity (PSR sort gate): low polyreactivity

QVQLVESGGGLVQAGGSLRLSCAASGSTFVGYAMGWYRQAPGKEMEFVAAITRGGSTNYADSVKGRFTISRDNAKNTVYLQMNSLKPEDTAVYYCAARDRREGFIFDYWGQGTQVTVSS
polyreactivity (PSR sort gate): low polyreactivity

QVQLVESGGGLVQAGGSLRLSCAASGSTFVGYAMGWYRQAPGKERELVAAISGSGTSTYYADSVKGRFTISRDNAKNTVYLQMNSLKPEDTAVYYCNADPIFVYSSYNYWGQGTQVTVSS
polyreactivity (PSR sort gate): low polyreactivity

QVQLVESGGGLVQAGGSLRLSCAASGSTFVGYAMGWYRQAPGKERELVADIDSIGGSTYYADSVKGRFTISRDYAKNTVYLQMNSLKPEDTAVYYCAARRFDTALVLYDYWGQGTQVTVSS
polyreactivity (PSR sort gate): low polyreactivity

QVQLVESGGGLVQAGGSLRLSCAASGSTFVHYAMGWYRQAPGKEREFVASITRSGTSTYYADSVKGRFTISRDNAKNNVYLQMNSLKPEDTAVYYCNAELLGARQYWYYRYYYWGQGTQVTVSS
polyreactivity (PSR sort gate): high polyreactivity

QVQLVESGGGLVQAGGSLRLSCAASGSTFVINAMGWYRQAPGKEREFVAAISYSRGITYYADSVKGRFTISRDNAKNYVDLQMNSLKQEDTAVYYCAVSPFENRDSGYDYWGQCTQVTVSS
polyreactivity (PSR sort gate): low polyreactivity

QVQLVESGGGLVQAGGSLRLSCAASGSTFVINAMGWYRQAPGKERELVADIDYRGGSTNYADSVKGRFTISRDNAKNTVYLPMNSLKPEDTAVYYCNKRYVIRRRGYDYWGQGTQVTVSS
polyreactivity (PSR sort gate): low polyreactivity

QVQLVESGGGLVQAGGSLRLSCAASGSTFVINAMGWYRQAPGKERELVARISSSGGRTYYADSVKGRFTISRDNAKNTVYLQMNSLKPEDTAVYYCAKRGYLFLRGSVRVGYNYWGHGTQVTVSS
polyreactivity (PSR sort gate): low polyreactivity

QVQLVESGGGLVQAGGSLRLSCAASGSTFVIYAMGWYRQAPGKERELVAAISGRTGSTYYADSVKGRFTISRDNAKNTVYLQMNSLKPEDTAVYYCAAYKRSGLKYGHWGQGTQVTVSS
polyreactivity (PSR sort gate): high polyreactivity

QVQLVESGGGLVQAGGSLRLSCAASGSTFVIYAMGWYRQAPGKERELVATITSGGSTYYADSVKGRFTISRDNAKNTVYLQMNSLKPEDTAVYYCAADDWGWPFYYYDDPMDYWGQGTQVTVSS
polyreactivity (PSR sort gate): high polyreactivity

QVQLVESGGGLVQAGGSLRLSCAASGSTFVKNAMGWYRQAPGKERELVAAISYRGGRTYYADSVKGRFTISRDNAKNTVYLQMNSLKPEDTAVYYCAADYISVYGYEYYYWGQGTQVTVSS
polyreactivity (PSR sort gate): high polyreactivity

QVQLVESGGGLVQAGGSLRLSCAASGSTFVKNTMGWYRQAPGKERELVAAIRSSGGSTYYADSVKGRFTISRDNAKNTVYLQMNSLKPEDTAVYYCAAPRVSVHGGGYWGQGTQVTVSS
polyreactivity (PSR sort gate): high polyreactivity

QVQLVESGGGLVQAGGSLRLSCAASGSTFVKNVMGWYRQAPGKERELVAGITRGGSTYYADSVKGRFTISRDNAKNTGSLQMNSLKPEDTAVYYCANRYAWDRDYWGQGTQVTVSS
polyreactivity (PSR sort gate): high polyreactivity

QVQLVESGGGLVQAGGSLRLSCAASGSTFVKYTMGWYRPAPGKERELVAAIRRRGGSTYYADSVKGRFTISRDNAKNTVYLQMNSLKPEDTAVYYCATAGQGAFWGQGTQVTVSS
polyreactivity (PSR sort gate): high polyreactivity

QVQLVESGGGLVQAGGSLRLSCAASGSTFVKYVMGRYRQAPGKERELVAAISRSSVRTYYADSVKGRFTISRDNAKNTVYLQMNSLKPEDTAVYYCAVVLSTYSYADYDYWGQGTLVTVSS
polyreactivity (PSR sort gate): high polyreactivity

QVQLVESGGGLVQAGGSLRLSCAASGSTFVLYAMGWYRQAPGKERELVAAIDSSGGSTYYADSVKGRFTISRDNAKNTVYLQMNSLKPEDTAVYYCAKAGRYANLPYGYWGQGTQVTVSS
polyreactivity (PSR sort gate): high polyreactivity

QVQLVESGGGLVQAGGSLRLSCAASGSTFVLYAMGWYRQAPGKERELVAAISTSGGRTYYADSVKGRFTISRDNAKNTVNLQMNSLKPEDTAVYYCAALTYVAQYDEYWGQGTQVTVSS
polyreactivity (PSR sort gate): low polyreactivity

QVQLVESGGGLVQAGGSLRLSCAASGSTFVNAMGWYRQAPGKERELVAAISLSGDSTYYADSVKGRFTISRDNAKNTVYLQMNCLKPEDTAVYYCNADGLGGEDPEYLWYPVPDYDYWGQGTQVTVSS
polyreactivity (PSR sort gate): low polyreactivity

QVQLVESGGGLVQAGGSLRLSCAASGSTFVNNAMGWYRQAPGKERELVAAIRNTGGRTYYADSVKGRFTISRDNAKNTVYLQMNSLKPEDTAVYYCAALSRVRTLWRMDYWGQGSQVTVSS
polyreactivity (PSR sort gate): high polyreactivity

QVQLVESGGGLVQAGGSLRLSCAASGSTFVNNAMGWYRQAPGKERELVAAIRSSDGRTYYADSVKGRFTISRDNAKNTVYLLMNSLKPEDTAGYYCNAGYWRFIDSYDYWGQGTQVTVSS
polyreactivity (PSR sort gate): high polyreactivity

QVQLVESGGGLVQAGGSLRLSCAASGSTFVNNAMGWYRQAPGKERELVAAIRSSGGSTYYADSVKGRFTISRDNAKNTVSLQMNSLKPEDTAVYYCNADRWKYELDYWGQGTQVTVSS
polyreactivity (PSR sort gate): high polyreactivity

QVQLVESGGGLVQAGGSLRLSCAASGSTFVNNVMGWYRQAPGKERELVAAISGRGGNTYYADSVKGRFTISRDNAKNTVYLQMNSLKPEDTAVYYCAPYSWGWSLWTYDYWGQGTQVTVSS
polyreactivity (PSR sort gate): high polyreactivity

QVQLVESGGGLVQAGGSLRLSCAASGSTFVNYAMGWYRQAPGKERELVAAITANGGRTYYADSVKGRFTISRDNAKNTVYLQMNSLKPEDTAVYYCNTESNLYRRRRNYWGQGTQVTVSS
polyreactivity (PSR sort gate): low polyreactivity

QVQLVESGGGLVQAGGSLRLSCAASGSTFVNYVMGWYRQAPGKERELVAAISRRGTSTRYADSVKGRFTISRDNAKNTVYFQMNSLKPEDTAVYFCAATRYVGVTGYGYWGLGTQVTVSS
polyreactivity (PSR sort gate): high polyreactivity

QVQLVESGGGLVQAGGSLRLSCAASGSTFVPNDMGWYRQAPGKERELVAGISSVGGTDADSVKGRFTISRDNAKNTVYLQMNSLKPEDTAVYYCNALHAYYVLTPYDYWGQGTQVTVSS
polyreactivity (PSR sort gate): low polyreactivity

QVQLVESGGGLVQAGGSLRLSCAASGSTFVPYAMGWNRQAPGKERELVASISWRGGSTSYADSVKGRFTISRDNAKNTVYLQMNSLKPEDNAVYYCAARPRYRYKQDYYYWGQGSQVTVSS
polyreactivity (PSR sort gate): high polyreactivity

QVQLVESGGGLVQAGGSLRLSCAASGSTFVPYAMGWYRQAPGKERELVAAISSAGSTNYADSVKGRFTISRDNAKNTVYLQMNSLKPEDTAVYYCARDIQDTYVFDYWGQGTQVTVSS
polyreactivity (PSR sort gate): low polyreactivity

QVQLVESGGGLVQAGGSLRLSCAASGSTFVPYAMGWYRQAPGKERELVAAITWSGGDSTYYADSVKGRFTISRDNAKNTVYLQMNSLKPEDTAVYYCAASYLGRKYDYWGQGTQVTVSS
polyreactivity (PSR sort gate): high polyreactivity

QVQLVESGGGLVQAGGSLRLSCAASGSTFVPYAMGWYRQAPGKERELVATIRWRGDRTYYADSVKGRFTSSRDNAKKTVYLQMNSLKPEDTAVYYCNTAGWSFYSGRYDYWGQGTQVTVSS
polyreactivity (PSR sort gate): high polyreactivity

QVQLVESGGGLVQAGGSLRLSCAASGSTFVPYTMGWYRQAPGKERELVAVISSSGGNTYYADSVKGRFTISRDNAKNTVYLQMNSLKPEDTAVYYCNKDYWYPNYRRYEYWGQGTQVTVSS
polyreactivity (PSR sort gate): low polyreactivity

QVQLVESGGGLVQAGGSLRLSCAASGSTFVQNAMGWYRQAPGNERELVAAISRTGGSTYYADSVKGRFTISRDNAKNTVYLQMNSLKPEDTAVYYCAKRPPNYSWPKIIEFGSWGLGTQVTVSS
polyreactivity (PSR sort gate): high polyreactivity

QVQLVESGGGLVQAGGSLRLSCAASGSTFVRNAMGWYRQAPGKERELVAAITSSGGSTYYADSVKGRFTISRDNAKYSVYLQMNSLKPEDTAVYYCAKRRYYRYDYWGQGTQVTVSS
polyreactivity (PSR sort gate): low polyreactivity

QVQLVESGGGLVQAGGSLRLSCAASGSTFVRYAKGWYRQAPGKETELVAAISYRGGSTYYADSVKGRFTISRDNAKNTVYLQMNSLKPEDTAVYYCAAESRHVEGEYWGQGTQVTVSS
polyreactivity (PSR sort gate): high polyreactivity
